One block for each molecule: values may come before it. No end group written: not given here.
Legend:
[1] = test system: cerebellar granule neurons; assay: L1-CAM-dependent neurite elongation in cultured cerebellar granule neurons; type: cell-based, rat; settings: n = 3 experiments
Text: A previous study of Src^−/− mice provided a possible mechanism for the effects of N1-Src upon neurite development. […] Src^−/− mice lack C-, N1- and N2-Src, but the isoform responsible for the impaired neurite outgrowth on L1-CAM was not identified in the study. We therefore investigated whether PDN1 affects L1-CAM-dependent neurite growth in cultured CGNs. Recombinant L1-CAM extracellular domain mixed with the fluorescent dye FITC were spotted in the centre of poly-D-lysine (polyLys) coated glass coverslips (Fig. 6a). CGNs were then plated over the whole surface of the coverslip, allowing a direct comparison between neurons growing on L1-CAM and polyLys.
Figure 6 PDN1 inhibits neurite elongation mediated by L1-CAM. (a) Schematic of the poly-D-lysine (polyLys) coated coverslips treated with a droplet of L1-CAM and FITC. […] (b) Cultured cerebellar granule neurons transfected with CFP were grown on the indicated concentrations of L1-CAM and the length of the longest neurite (axon) determined. (c,d) CGNs were plated on polyLys coated coverslips with a region of […] L1-CAM (see a) and transfected after 24 h with CFP (control) or CFP-PDN1 for 48 h prior to fixing and processing for fluorescence microscopy. Length of longest neurite (c) and branches on the longest neurite (d) were quantified for neurons in the polyLys or L1-CAM regions using the NeuronJ plugin for ImageJ. All data were plotted as mean ± SEM, n = 3 experiments with 30 cells analysed per condition for each experiment. Statistical analysis was performed by one way ANOVA and post-hoc Tukey test (*P < 0.05; **P < 0.01; n.s = not significant).
Using a concentration of 25 μg/ml L1-CAM, which induced a 50% increase in neurite length, we then determined the effect of CFP-PDN1 transfection on neurite length on L1-CAM or polyLys. […]
(§1) Analysis of COS7 cell area was performed with ImageJ software. The NeuronJ plugin[43] was used for the quantification of process length and branching in both COS7 cells and neurons. […]

N1-Src [2] = target: T1, N1-Src (Rattus norvegicus, UniProt Q9WUD9); assay: morphology of COS7 cells transfected with N1-Src-FLAG; type: cell-based; settings: for effect on N1-Src-induced shrinkage of the cell soma (cell area) / effect on number of neurites (processes) per cell: COS7, co-transfection with N1-Src-FLAG 48 h, mean, n = 3 experiments, one way ANOVA
Procedure: (§2) Previous studies have shown that soluble SH3 ligands can enhance Src family kinase activity in vitro[20][21]. […] This experiment raised the possibility that PDN1 could act as an N1-Src inhibitor in cells. […] We observed that COS7 cells transfected with N1-Src-FLAG underwent a striking change in morphology within 48 h (Fig. 3a). Similar to that previously observed in Xenopus epithelial cells, overexpression of the kinase induced the growth of neurite-like processes (Fig. 3b) and an approximate 35% reduction in area of the cell soma (Fig. 3c). […] Using cell morphology as a readout, we assessed the effect of CFP-PDN1 and PDN1(P5A) on N1-Src activity in cells. […] Furthermore, the peptides had no significant effect upon the morphology of C-Src transfected cells. We also assessed the effect of PDN1 on N2-Src expressing cells because the first five amino acids of its SH3 insert are identical to that in N1-Src[3].
Figure 3 CFP-PDN1 inhibits the biological activity of N1-Src in cells. (a) COS7 cells were transfected for 48 h with empty plasmid (FLAG), C-, N1- or N2-Src-FLAG in combination with CFP, CFP-PDN1 or CFP-PDN1(P5A) and processed for immunofluorescence (green = CFP, red = Src-FLAG). Scale bar = 10 μm. Twenty representative fields of view (~50 cells) per condition in each experiment were analysed to quantify (b) number of processes per cell and (c). Data were plotted as mean ± SEM (n = 3 experiments). Statistical analysis was performed by one way ANOVA and post-hoc Tukey test (*P < 0.05; ***P < 0.001; n.s = not significant).
COS7 cells were plated at a density of 3 × 10^4 cells per well of a 24 well plate or 10^5 cells per well of a 6 well plate and transfected using EcoTransfect 24 h after plating according to the manufacturer’s instructions (Oz Biosciences, Marseille, France). Rat cerebellar granule and hippocampal neurons were prepared as previously described[40][41] and approved by the Biology Ethics Committee, University of York. The animals were euthanised according to Schedule 1 of the UK Home Office Animals (Scientific Procedures) Act. Neurons were plated at a density of 2.5 × 10^5 cells per coverslip and transfected after 24 h using a calcium phosphate kit (Promega, Southampton, UK) or Lipofectamine2000 (Invitrogen, Paisley UK) according to the manufacturer’s instructions. Following transfection the medium was replaced with MEM culture medium with 10 μM arabinofuranosyl cytidine for the indicated time before fixing for staining and morphological analysis. For L1-CAM assays, a 10 μl droplet containing 25 μg/ml L1-CAM extracellular domain (R&D Systems) and 1 mg/ml fluorescein isothiocyanate (FITC) was spotted onto the centre of a poly-D-lysine coated coverslip and air dried for 1 h prior to plating neurons.
Analysis of COS7 cell area was performed with ImageJ software. The NeuronJ plugin[43] was used for the quantification of process length and branching in both COS7 cells and neurons. Where appropriate, statistical analyses of the data were performed with SigmaPlot software using one way ANOVA or Kruskal-Wallis tests with post-hoc pairwise comparisons by Tukey or Dunn tests respectively.

[3] = test system: cerebellar granule neurons; assay: neurite outgrowth of cultured cerebellar granule neurons (polyLys); type: cell-based, rat; settings: n = 3 experiments, 30 cells per condition
Procedure: We next took advantage of the specificity of PDN1 to investigate the role of endogenous N1-Src in neurite outgrowth in cultured neurons. CFP-PDN1 or -PDN1(P5A) was transfected into 1 DIV CGNs and their morphology analysed after […]. During CGN development in vivo and immediately after plating in vitro, the cells grow two processes before polarising to yield a single axon and the second process retracts to become a dendrite and further dendrites are initiated. The axon then extends further before bifurcating. […] To further confirm that N1-Src regulates neurite growth we employed an shRNA expressing plasmid (pSUPER-GFP) to knockdown N1-Src in neurons. […] The successful N1-Src shRNA plasmid was transfected into hippocampal neurons, and the length of the longest neurite in GFP-positive neurons was assessed at 48 h and 96 h post-transfection. […] Thus, perturbing N1-Src activity with PDN1 or knockdown of the protein produces the same neurite phenotype in primary neuronal cultures.
Figure 4 PDN1 inhibits neurite growth in cultured neurons. (a) Cultured cerebellar granule neurons were transfected 24 h after plating with CFP, CFP-PDN1 or CFP-PDN1(P5A) for 48 h prior to fixing and processing for immunofluorescence. Scale bar = 10 μm. (b,c) Length of longest neurite and branches per longest neurite were quantified using the NeuronJ plugin for ImageJ. Data were plotted as mean ± SEM, n = 3 experiments with 30 cells analysed per condition for each experiment. Statistical analysis was performed by one way ANOVA and post-hoc Tukey test (*P < 0.05; ***P < 0.001; n.s = not significant).
COS7 cells were plated at a density of 3 × 10^4 cells per well of a 24 well plate or 10^5 cells per well of a 6 well plate and transfected using EcoTransfect 24 h after plating according to the manufacturer’s instructions (Oz Biosciences, Marseille, France). […]
as §1

N1-Src [4] = target: T1, N1-Src; assay: co-immunoprecipitation of N1-Src-FLAG and CFP-PDN1 from COS7 cells; type: binding; design: His; made in house; host or cells: E. coli; settings: COS7 cells co-transfected with N1-Src-FLAG, lysed after 48 h; anti-FLAG IP, anti-GFP detection
N2-Src = assay: morphology of COS7 cells transfected with N2-Src-FLAG; type: cell-based; settings: COS7, co-transfection with N2-Src-FLAG 48 h; n = 3 experiments
Procedure: as §2
Figure 3 CFP-PDN1 inhibits the biological activity of N1-Src in cells. […] Twenty representative fields of view (~50 cells) per condition in each experiment were analysed to quantify (b) number of processes per cell and (c). […]
as §1

N1-Src [5] = target: T1, N1-Src; assay: inhibition of N1-Src phosphorylation of GST-Y by free soluble peptide; type: biochemical; design: His; made in house; host or cells: E. coli; settings: free soluble peptide titrated with 5 nM N1-Src and GST-Y; phosphotyrosine immunoblot densitometry; n = 3
Procedure: Previous studies have shown that soluble SH3 ligands can enhance Src family kinase activity in vitro[20][21]. […] This experiment raised the possibility that PDN1 could act as an N1-Src inhibitor in cells. […] We observed that COS7 cells transfected with N1-Src-FLAG underwent a striking change in morphology within 48 h (Fig. 3a). Similar to that previously observed in Xenopus epithelial cells, overexpression of the kinase induced the growth of neurite-like processes (Fig. 3b) and an approximate 35% reduction in area of the cell soma (Fig. 3c). […] Using cell morphology as a readout, we assessed the effect of CFP-PDN1 and PDN1(P5A) on N1-Src activity in cells. […] We also assessed the effect of PDN1 on N2-Src expressing cells because the first five amino acids of its SH3 insert are identical to that in N1-Src[3].
Figure 2 PDN1 inhibits N1-Src activity in vitro. GST-Y was incubated with 5 nM N1-Src and the indicated concentrations of either PDN1 or PDN1(P5A) and the extent of phosphorylation determined by densitometry of phosphotyrosine immunoreactivity. […]
Phosphorylation reactions were performed as previously described, prepared in kinase reaction buffer (100 mM Tris, 10 mM MgCl2, pH 7.5) and initiated by the addition of pre-warmed ATP (0.5 mM final concentration) and incubated at 30 °C for the indicated times. […] Due to the non-quantitative measurement of V, Vmax was not determined. […]

[6] = CGNs transfected with CFP fusions, one way ANOVA

effect on number of neurites (processes) per cell (N1-Src [2]): reduced the number of neurites per cell
binding to N1-Src in cells (co-immunoprecipitation) (N1-Src [4]): can bind N1-Src in cells
Molecule: CFP-PDN1: PDN1 fused to CFP, expressed in transfected cells (WHRMPAYTAKYP; also: fused to CFP, end not given here)
length of longest neurite on L1-CAM compared with polyLys ([1]; CFP-PDN1 transfected CGNs on L1-CAM (25 μg/ml in text), 48 h, 30 cells per condition): not significantly different to that on polyLys
effect on N1-Src-induced shrinkage of the cell soma (cell area) (N1-Src [2]): prevented both the shrinkage of the cell soma
selectivity for N1-Src in cells (N1-Src [2]; COS7, compared with C-Src and N2-Src): selective for the N1-Src splice variant in cells
inhibition of mean length of longest neurite on polyLys ([3]; CGNs grown on polyLys, transfected 24 h after plating, 48 h): approximately 40%
branches per longest neurite [3, 6]: longest neurite branching was inhibited
length of longest neurite [3, 6]: reduced in length
rescue of morphology of N2-Src transfected cells (N2-Src): did not rescue wild type morphology

inhibition of GST-Y phosphorylation (N1-Src [5]): no significant inhibition
Molecule: PDN1(P5A): PDN1(P5A) mutant peptide (WHRMAAYTAKYP)

binding to N1-Src in cells (co-immunoprecipitation) (N1-Src [4]): greatly reduced
Molecule: CFP-PDN1(P5A): PDN1(P5A) mutant fused to CFP, expressed in transfected cells (WHRMAAYTAKYP; also: fused to CFP, end not given here)
effect on N1-Src-induced shrinkage of the cell soma (cell area) (N1-Src [2]): no significant effect on either parameter
effect on number of neurites (processes) per cell (N1-Src [2]): no significant effect on either parameter

B1: L1-CAM: Recombinant L1-CAM extracellular domain (R&D Systems) (protein, UniProt P32004 20-1120, looked up)
extracellular domain: IQIPEEYEGHHVMEPPVITEQSPRRLVVFPTDDISLKCEASGKPEVQFRWTRDGVHFKPKEELGVTVYQSPHSGSFTITGNNSNFAQRFQGIYRCFASNKLGTAMSHEIRLMAEGAPKWPKETVKPVEVEEGESVVLPCNPPPSAEPLRIYWMNSKILHIKQDERVTMGQNGNLYFANVLTSDNHSDYICHAHFPGTRTIIQKEPIDLRVKATNSMIDRKPRLLFPTNSSSHLVALQGQPLVLECIAEGFPTPTIKWLRPSGPMPADRVTYQNHNKTLQLLKVGEEDDGEYRCLAENSLGSARHAYYVTVEAAPYWLHKPQSHLYGPGETARLDCQVQGRPQPEVTWRINGIPVEELAKDQKYRIQRGALILSNVQPSDTMVTQCEARNRHGLLLANAYIYVVQLPAKILTADNQTYMAVQGSTAYLLCKAFGAPVPSVQWLDEDGTTVLQDERFFPYANGTLGIRDLQANDTGRYFCLAANDQNNVTIMANLKVKDATQITQGPRSTIEKKGSRVTFTCQASFDPSLQPSITWRGDGRDLQELGDSDKYFIEDGRLVIHSLDYSDQGNYSCVASTELDVVESRAQLLVVGSPGPVPRLVLSDLHLLTQSQVRVSWSPAEDHNAPIEKYDIEFEDKEMAPEKWYSLGKVPGNQTSTTLKLSPYVHYTFRVTAINKYGPGEPSPVSETVVTPEAAPEKNPVDVKGEGNETTNMVITWKPLRWMDWNAPQVQYRVQWRPQGTRGPWQEQIVSDPFLVVSNTSTFVPYEIKVQAVNSQGKGPEPQVTIGYSGEDYPQAIPELEGIEILNSSAVLVKWRPVDLAQVKGHLRGYNVTYWREGSQRKHSKRHIHKDHVVVPANTTSVILSGLRPYSSYHLEVQAFNGRGSGPASEFTFSTPEGVPGHPEALHLECQSNTSLLLRWQPPLSHNGVLTGYVLSYHPLDEGGKGQLSFNLRDPELRTHNLTDLSPHLRYRFQLQATTKEGPGEAIVREGGTMALSGISDFGNISATAGENYSVVSWVPKEGQCNFRFHILFKALGEEKGGASLSPQYVSYNQSSYTQWDLQPDTDYEIHLFKERMFRHQMAVKTNGTGRVRLPPAGFATE
modifications: extracellular domain
increase in neurite length by L1-CAM ([1]; 25 μg/ml L1-CAM coating, CFP-transfected CGNs): 50%
neurite outgrowth on L1-CAM ([1]; CFP-transfected CGNs on indicated L1-CAM concentrations): increases neurite outgrowth in a dose dependent manner

From publication PMC5318895, “Inhibition of N1-Src kinase by a specific SH3 peptide ligand reveals a role for N1-Src in neurite elongation by L1-CAM” (Scientific Reports, 2017)
